Assay results published in the supplement of paper PMC9170038.

Test system: MS2 coat protein
Experiment: apparent KD of MS2 coat protein; designed switch direction (-1 OFF switch, 1 ON switch): 1; higher = weaker reporter binding
How it was run: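 Designed RNA switches with common flanks were transcribed on Illumina chips by stalled E. coli RNA polymerase and titrated with SNAP-549-labelled MS2 coat protein, from 0.7 or 1.5 nM doubling to 3 µM, in Tris-HCl pH 7.5 buffer with KCl, MgCl2, BSA, DTT, tRNA and Tween-20. Steps lasted 0.8–1.5 h (lowest) to 10–20 min (highest). Titrations ran without input, with 200 uM small-molecule ligand, or with an oligonucleotide input. Normalised cluster fluorescence was curve-fitted, and apparent KD is the per-design median over clusters.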

[1] = input ligand: microRNA oligo, concentration not stated
[2] = Eterna round: R95, input ligand: FMN 200 uM
[3] = Eterna round: R95, input ligand: microRNA oligo, concentration not stated
[4] = Eterna round: R95, input ligand: none

Row | Sequence | apparent KD of MS2 coat protein (input ligand: FMN 200 uM) [nM] | apparent KD of MS2 coat protein [1] [nM] | apparent KD of MS2 coat protein (input ligand: none) [nM] | apparent KD of MS2 coat protein [2] [nM] | apparent KD of MS2 coat protein [3] [nM] | apparent KD of MS2 coat protein [4] [nM]
1 | ACAUGAGAGUGAGGAUAUGCUGUACCUACAUGUGACAUGAGGAUCACCCAUGUGGUAAGUAUGACGCAGAAGGCACAGAUAUGU [Equivalance 78 - Jieux - Same State NG 2] (Eterna round: R96, puzzle: Same State NG 2) | 13.3 | 78.9 | 103 |  |  | 
2 | UCUUGGUUUUUGCUCGUUUUUUGUGUUGAACAUGAGGAUCACCCAUGUAUUGUACGGUCCAAUUUAGUAGUGGUCCG [JMF 25] (puzzle: Sensor for hsa-mir-208a) |  |  |  | 26.6 | 15.3 | 26.2
3 | CCGCCGGGAACCCGGCGGAAACAUGAGGAUCACCCAUGUACACAGGAUAUCGUGACAUUAACAAACGAGAAGGGUGGCCGAGAC [Atre] (Eterna round: R96, puzzle: Same State NG 3) | 345 | 91.6 | 137 |  |  | 
4 | UACAAUCUAUCUGAGGAUAUCAUGAAGAAAACAUGAGGAUCACCCAUGUGCAGGAGAACUGCAAAUGAGAAGGCAGAUAGAUUGU [Mat - Same State 2 - Mod - D1] (puzzle: Same State 2) |  |  |  | 9.46 | 12.9 | 13.4
5 | GCUACCAUUGAAGCCAACAUGAGGAUCACCCAUGUAUGUUGGCAGGAUAUCGAUUGCUUUGCGAUCGAGAAGGGCUAAGGUAGC [JL SSNG3 1.29] (Eterna round: R96, puzzle: Same State NG 3) | 120 | 153 | 171 |  |  | 
6 | AGUCCAGCAUGAGCUGGACAAAAGCAUGUACAUGAGGAUCACCCAUGUUCAUGUACAAGCUUUUUGCAAGUCAAAAU [Mat - hsa-mir-208a - Mod of JL - 81] (puzzle: Sensor for hsa-mir-208a) |  |  |  | 614 | 17.8 | 595
7 | UCUUGGUUUUUGCUCGUUUUUUGUGUUGAACAUGAGGAUCACCCAUGUAUUGUACGGUCCGGUUUGAUGAUGGUCCA [JMF 46] (puzzle: Sensor for hsa-mir-208a) |  |  |  | 35.6 | 23.9 | 38.3
8 | UUAUCGCUUGGAGGAUAUCCAACUAUACUAAUUGGAGAAGGCCAAGCUACAGAGCUAAGCUUGGAAGUCACUUCGAAUCAACAC [pwkr ssNG1 F9.3] (Eterna round: R96, puzzle: Same State NG 1) | 33.2 | 5.18 | 48.8 |  |  | 
9 | UUACUCAUGUAAGGAUAUGCAGCCGAAACGGCUGCAGAAGGUACUAUAAUACAUGAGGAUCACCCAUGUAAAAUAAAUAAAGUU [Mat - Same State NG 1 - JL mod - D97] (Eterna round: R96, puzzle: Same State NG 1) | 29.1 | 32 | 35.9 |  |  | 
10 | GGUAGGUUACUACCAAACAUGAGGAUCACCCAUGUAAGUGGGAAGGAUAUGGUACCUAAAAGGUACCAGAAGGUCCAUAUAGUU [Mat - Same State NG 3 - JL Mod - D99] (Eterna round: R96, puzzle: Same State NG 3) | 202 | 228 | 711 |  |  | 
11 | GUGGUCAGACAUGAGGAUCACCCAUGUGGAAUAAAUAACACAGAGGAUAUGGAAUAUAAAAUAUACCAGAAGGCUGGAUUGGUG (Eterna round: R96, puzzle: Same State NG 3) | 131 | 188 | 268 |  |  | 
12 | UUGUUUCGUCAUUAACAUGAGGAUCACCCAUGUCUUGGCCCAGAGGAUAUGCAUGUUUGAUUGUAGCAGAAGGCUGAUUGUUGU [JR_SSNG3_Sub031] (Eterna round: R96, puzzle: Same State NG 3) | 25.9 | 34.9 | 42.5 |  |  | 
13 | AUUCUUAAUGCAGGAUAUGAUUAACAUGAGGAUCACCCAUGUGGUGUUGUGAGUAAGGAGAGUGAUCAGAAGGGCAUUUUUUUU [JMF's solution 32] (Eterna round: R96, puzzle: Same State NG 2) | 316 | 271 | 210 |  |  | 
14 | UGUUAACAUGAGGAUCACCCAUGUCAAAUGAAUCGAGGAUAUGGGAAGGAAGAAGAGAAACUAGAAGGCGAAGUUG [Altered State 1-4 - Jieux - Same State 1] (puzzle: Same State 1) |  |  |  | 835 | 56.8 | 216
15 | GCUAGAAUUAAAGCCAACAUGAGGAUCACCCAUGUAUGUUGGCAGGAUAUCGUUUGCAAAGCAAACGAGAAGGGCUAAACUAGC [Mat - Same State NG 3 - JL Mod - D4] (Eterna round: R96, puzzle: Same State NG 3) | 197 | 100 | 244 |  |  | 
16 | AAUUUAAUACAUGAGGAUCACCCAUGUAAAUUAAUUAAGAUCAAGGAUAUCAGCUCGAUUAGAGCUGAGAAGGUGAUCACAUGU [SSNG3/19-A2] (Eterna round: R96, puzzle: Same State NG 3) |  | 307 |  |  |  | 
17 | GGAGCCGGCACCGAGGAUAUUUAUAUUAAAACAUGAGGAUCACCCAUGUAGGCCAGAAGGCCUUGGGAGAAGGCGGAUCGGCUCG [Xeonanis - 5] (puzzle: Same State 2) |  |  |  | 16.4 | 75.7 | 79.6
18 | UUGUAUCGAAAAGGAUAUCAUGGGCAACGGUACUGAGAAGGUUUCGAGCUCGAACGAGCAACAUGAGGAUCACCCAUGUCCGAG [Eternabot solution 50] (Eterna round: R96, puzzle: Same State NG 1) | 337 | 280 | 212 |  |  | 
19 | CUGAGCGAUCAAGGAUAUCACGUCGUUUAGACGUGAGAAGGUGAUAAUUACAUGAGGAUCACCCAUGUAUAACAUGAAGCUCAG [SSNG1/9-A3] (Eterna round: R96, puzzle: Same State NG 1) | 14 | 16.4 | 21 |  |  | 
20 | UUCUCACAUGAGGAUCACCCAUGUGAGCCUCUGUGAGGAUAUCCGACAUAAUUAAGUGAAGGAGAAGGUACACGAG [Malean] (puzzle: Same State 1) |  |  |  | 24.8 | 30.2 | 19.5
21 | GGUGCAAUUAACGCCUACAUGAGGAUCACCCAUGUAUGUAGGCAGGAUAUCGUUUGCUUUGCAAACGAGAAGGGCUAUAGUACC [JL SSNG3 1.15] (Eterna round: R96, puzzle: Same State NG 3) | 54.4 | 130 | 157 |  |  | 
22 | AUAAGUCCGAUGCUCGUCUCUCCGUACAAACAUGAGGAUCACCCAUGUGAUCGGGCAGUAGCCCGAUCAGUAUGGCC [Raedre] (puzzle: Sensor for hsa-mir-208a) |  |  |  | 51.5 | 23.9 | 56.4
23 | AACAUGAGGAUCACCCAUGUAGAAAAGUGAGGCAGCUCAGGGAAGGAUAUGGUUGACACCCUCGACCAGAAGGUCCAAAAUAAA [Argeatonra] (Eterna round: R96, puzzle: Same State NG 3) | 31.2 | 54.2 | 63.6 |  |  | 
